Laboratory results taken from publication PMC9866218 (2023).

How the values were obtained:
KV1.2 [1] = biological target: T1, KV1.2 (Homo sapiens, UniProt P16389); assay: whole-cell patch clamp (koff/kon block kinetics)
KV1.2 [2] = biological target: T1, KV1.2; assay: whole-cell patch clamp (Hill fit of concentration-response)
KCa3.1 = KCa3.1 (Homo sapiens, UniProt O15554); assay: as above
KCa2.2 = KCa2.2 (Homo sapiens, UniProt Q9H2S1); assay: as above
Chain of KCa2.2 (Q9H2S1 whole entry): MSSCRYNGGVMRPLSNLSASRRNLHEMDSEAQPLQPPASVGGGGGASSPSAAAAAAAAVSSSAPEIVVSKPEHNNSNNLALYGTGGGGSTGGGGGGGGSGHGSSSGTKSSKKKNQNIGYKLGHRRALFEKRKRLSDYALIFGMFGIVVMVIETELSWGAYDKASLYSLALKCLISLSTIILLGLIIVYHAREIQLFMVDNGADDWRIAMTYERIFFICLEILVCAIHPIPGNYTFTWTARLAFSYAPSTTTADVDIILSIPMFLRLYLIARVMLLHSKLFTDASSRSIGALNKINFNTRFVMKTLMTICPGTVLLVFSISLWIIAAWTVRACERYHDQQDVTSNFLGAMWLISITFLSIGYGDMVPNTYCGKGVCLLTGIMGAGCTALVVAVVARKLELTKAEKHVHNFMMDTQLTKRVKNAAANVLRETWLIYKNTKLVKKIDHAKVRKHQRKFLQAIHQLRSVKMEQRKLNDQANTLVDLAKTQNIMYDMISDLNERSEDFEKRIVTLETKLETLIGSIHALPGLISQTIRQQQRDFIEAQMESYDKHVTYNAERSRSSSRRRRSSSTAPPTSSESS

T1 sequence (P16389 whole entry): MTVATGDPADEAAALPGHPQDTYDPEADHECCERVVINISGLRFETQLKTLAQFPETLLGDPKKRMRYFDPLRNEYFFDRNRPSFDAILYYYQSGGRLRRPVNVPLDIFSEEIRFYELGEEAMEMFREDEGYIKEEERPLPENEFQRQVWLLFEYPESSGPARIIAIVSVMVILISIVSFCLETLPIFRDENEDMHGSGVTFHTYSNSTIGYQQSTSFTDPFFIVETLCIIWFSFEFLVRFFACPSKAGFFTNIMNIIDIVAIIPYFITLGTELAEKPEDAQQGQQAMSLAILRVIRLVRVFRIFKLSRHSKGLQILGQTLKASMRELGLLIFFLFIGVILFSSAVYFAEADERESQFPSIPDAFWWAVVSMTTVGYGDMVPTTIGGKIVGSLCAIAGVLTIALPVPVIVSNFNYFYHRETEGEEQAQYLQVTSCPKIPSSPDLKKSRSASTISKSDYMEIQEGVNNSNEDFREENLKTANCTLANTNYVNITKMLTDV
Chain of KCa3.1 (O15554 whole entry): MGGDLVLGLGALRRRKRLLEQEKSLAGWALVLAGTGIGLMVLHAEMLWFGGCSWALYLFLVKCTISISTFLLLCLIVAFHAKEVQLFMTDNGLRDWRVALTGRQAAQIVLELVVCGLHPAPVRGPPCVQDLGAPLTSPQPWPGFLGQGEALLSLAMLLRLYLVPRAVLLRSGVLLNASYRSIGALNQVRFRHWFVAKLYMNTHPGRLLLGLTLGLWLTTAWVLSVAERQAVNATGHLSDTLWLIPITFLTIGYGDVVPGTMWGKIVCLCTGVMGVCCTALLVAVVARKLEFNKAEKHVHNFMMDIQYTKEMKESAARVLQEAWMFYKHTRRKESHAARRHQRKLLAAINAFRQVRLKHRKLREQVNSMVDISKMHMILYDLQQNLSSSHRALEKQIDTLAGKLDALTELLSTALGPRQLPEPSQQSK

B1: Cm39 (α-KTx 4.8) (peptide)
chain: TFINHKCKSSSECLPACKAAIGRASGKCINSTCKCYY
- Kd (KV1.2 [1]): 87.8 nM
- Kd (KV1.2 [2]): 65 nM
- Kd (KCa3.1): 57.7 nM
- Kd (KCa2.2): 502 nM
